{"source": "the supplement of paper PMC11865577"}
{"tested_on": "TO-3-N3-2 (biotin conjugate)", "test": "pull-down binding Z-score (relative to library population); higher = stronger binding", "settings": "RNA library: Library-2", "procedure,_shortened": "(§1)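 Biotin-conjugated small molecule (100 pmol) on streptavidin beads was incubated with 1 μg of heat-folded Cy5- or Cy3-end-labelled RNA library in phosphate/NaCl/KCl buffer at 25 °C for 60 min. Following three washes, RNA was eluted with hot SDS and hybridised at 55.5 °C for 20 h to a DNA barcode microarray. The binding value is a Z-score computed from the library mean and standard deviation, after subtraction of beads without compound and averaging of barcoded replicate probes with the highest and lowest excluded.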"}
{"sequence": "CUGGGAAGAGACCAUGAACAGGUUAGUCCAG [hsa-mir-4327]", "pull-down binding Z-score": -0.286}
{"sequence": "CUGGGAAGGGAGCUGUCCGGCUCCCCAG [hsa-mir-3155b]", "pull-down binding Z-score": -0.263}
{"sequence": "CUGGGAGGUGUGAUAUCGUGGUUCCUGG [hsa-mir-3689c]", "pull-down binding Z-score": 0.136}
{"sequence": "CUGGGAGGUGUGAUCCCGUGCUUCCUGG [hsa-mir-3689b]", "pull-down binding Z-score": -0.408}
{"sequence": "CUGGGAGGUGUGAUCCUGUGCUUCCUGG [hsa-mir-3689a]", "pull-down binding Z-score": 0.507}
{"sequence": "CUGGGGACUGUGUGGACUGGUAUCACCCAG [hsa-mir-2278]", "pull-down binding Z-score": -0.298}
{"sequence": "CUGGGGAGCCGGACAGCUCCCUUCCCAG [hsa-mir-3155a]", "pull-down binding Z-score": -0.168}
{"sequence": "CUGGGGGAAGGCUCCAGACCCCAGCCU [hsa-mir-4267]", "pull-down binding Z-score": 0.331}
{"sequence": "CUGGGGUUGGAAUGUGACCCCA [hsa-mir-4654]", "pull-down binding Z-score": -0.171}
{"sequence": "CUGGGUCCUCUGUGCAGGGUCUUACCCAG [hsa-mir-7850]", "pull-down binding Z-score": -0.415}
{"sequence": "CUGGGUGGGACACUCAG [hsa-mir-4692]", "pull-down binding Z-score": 0.311}
{"sequence": "CUGGGUUCGGCUGCUACCCCAAA [hsa-mir-6768]", "pull-down binding Z-score": 0.195}
{"sequence": "CUGGGUUCUUAGAGGCCUAAUCCUCUACAAACUCAGUUU [hsa-mir-4305]", "pull-down binding Z-score": -0.258}
{"sequence": "CUGGUAGUAUAAAACCCAG [hsa-mir-934]", "pull-down binding Z-score": -0.114}
{"sequence": "CUGGUGUUCUCACGCAAAGUGGCCAGGGUGUGGGAGACUAGA [hsa-mir-7161]", "pull-down binding Z-score": 0.556}
{"sequence": "CUGUAUGUCCUAACAGUGCUUGUAG [hsa-mir-4794]", "pull-down binding Z-score": -0.0698}
{"sequence": "CUGUCCCCUGCCACUGGGUGACC [hsa-mir-7114]", "pull-down binding Z-score": 0.144}
{"sequence": "CUGUCCUGGACUGGGGUCAGACUGUGCCCCGAGGAGAAGCAG [hsa-mir-922]", "pull-down binding Z-score": -0.166}
{"sequence": "CUGUCUGUUGUAUAAAAGAAAAGAUCG [hsa-mir-517a]", "pull-down binding Z-score": 0.743}
{"tested_on": "TO-3-N3 (biotin conjugate)", "test": "pull-down binding Z-score (relative to library population); higher = stronger binding", "settings": "RNA library: Library-2", "procedure,_shortened": "as §1"}
{"sequence": "CUCAUGUAAACUAAAACAUGAU [hsa-mir-508]", "pull-down binding Z-score": 0.0647}
{"sequence": "CUCAUUGUUGAAUGGAAUGAGAU [hsa-mir-3145]", "pull-down binding Z-score": -0.527}
{"sequence": "CUCCGGGUUGGGG [hsa-mir-1469]", "pull-down binding Z-score": -0.552}
{"sequence": "CUCCUAUUGAAAAUGAACAGGAG [hsa-mir-873]", "pull-down binding Z-score": -0.0676}
{"sequence": "CUCCUCCGCUGCCGCCGGGAGAG [hsa-mir-4785]", "pull-down binding Z-score": -0.584}
{"sequence": "CUCGCUGGGAGGUGUGCUAUCGUCUUCCCCGGGAG [hsa-mir-3689d-1]", "pull-down binding Z-score": -0.0907}
{"sequence": "CUCGCUGGGAGGUGUGCUAUCGUCUUCCCUGGGAG [hsa-mir-3689d-2]", "pull-down binding Z-score": 0.157}
{"sequence": "CUCGGCCAUCCUCCGUCUGCCCAG [hsa-mir-935]", "pull-down binding Z-score": -0.0566}
{"sequence": "CUCGGGAGGCUGAG [hsa-mir-4419a]", "pull-down binding Z-score": -0.569}
{"sequence": "CUCGGGUGGAUAAGUCUGAUCUGAG [hsa-mir-3663]", "pull-down binding Z-score": -0.724}
{"sequence": "CUCGUCUCUACAAAAAAUUGAGACAGG [hsa-mir-4512]", "pull-down binding Z-score": 0.00896}
{"sequence": "CUCUAGACUCUAUUAUAGUUUCCUGAG [hsa-mir-558]", "pull-down binding Z-score": -0.335}
{"sequence": "CUCUCCUCCAGCUCAGCUGGUCAGGAGAG [hsa-mir-3160-1]", "pull-down binding Z-score": 1.09}
{"sequence": "CUCUCCUGACCAGCUGAGCUGGAGGAGAG [hsa-mir-3160-2]", "pull-down binding Z-score": -0.0412}
{"sequence": "CUCUCGUGUCCACUAGCAGGCAGGUUUUCUGACACAGG [hsa-mir-604]", "pull-down binding Z-score": -0.343}
{"sequence": "CUCUCUGUUGCUCUGAAGGAG [hsa-mir-346]", "pull-down binding Z-score": -0.271}
{"sequence": "CUCUGAUGUAAUUAGGU [hsa-mir-563]", "pull-down binding Z-score": -0.504}
{"sequence": "CUCUGCUGUGUAAAUAGUUCUGAGUAGU [hsa-mir-454]", "pull-down binding Z-score": -0.17}
{"sequence": "CUCUGGUCAGUUGGGAGUCUGAG [hsa-mir-143]", "pull-down binding Z-score": -0.346}
{"sequence": "CUCUGGUCUAUAAUGGGUUAAAUAGUAGAG [hsa-mir-609]", "pull-down binding Z-score": -0.334}
{"sequence": "CUCUGUAGUUUUCUUAUAGUG [hsa-mir-644a]", "pull-down binding Z-score": -0.635}
{"sequence": "CUCUUGAUAGCAGACAU [hsa-mir-4775]", "pull-down binding Z-score": -0.326}
{"sequence": "CUGAAAAUACAAAAUGGAAAAUUCCAG [hsa-mir-4494]", "pull-down binding Z-score": -0.0909}
{"sequence": "CUGAACCCGUGGGUGAGGAGUGCAG [hsa-mir-4690]", "pull-down binding Z-score": 0.367}
{"sequence": "CUGAACUGGGCUGGGUUGAGCUGGGCUGGGCUGAGUUGAG [hsa-mir-4538]", "pull-down binding Z-score": 4.18}
{"sequence": "CUGACCCGUUGUCAGACCUGGAAAAAGGGCCGGCUGUGGGCAGGGAGG [hsa-mir-4761]", "pull-down binding Z-score": 4.77}
{"sequence": "CUGAGAGGUUUACAUUUCUC [hsa-mir-128-1]", "pull-down binding Z-score": -0.664}
{"sequence": "CUGAGAGUGUCAUGGUGGAGCCUCCG [hsa-mir-4784]", "pull-down binding Z-score": 0.121}
{"sequence": "CUGAGCGGCUCCAUCCCCCGGCCUGCUCAU [hsa-mir-6729]", "pull-down binding Z-score": 0.85}
{"sequence": "CUGAGCUGGGUACUGCCUGUUCAG [hsa-mir-589]", "pull-down binding Z-score": 0.697}
{"sequence": "CUGAGGAAUUUGCUGGGAUAUGUCAG [hsa-mir-584]", "pull-down binding Z-score": 0.181}
{"sequence": "CUGAGGACAUGCAGUUUCAG [hsa-mir-7702]", "pull-down binding Z-score": -0.471}
{"sequence": "CUGAGGACUGAGGCUCACCUUG [hsa-mir-6772]", "pull-down binding Z-score": -0.057}
{"sequence": "CUGAGUAACUUGUGCUUAUAACUCAG [hsa-mir-5000]", "pull-down binding Z-score": 0.396}
{"sequence": "CUGAUUCAGAAAGAUCAUCGG [hsa-mir-127]", "pull-down binding Z-score": -0.444}
{"sequence": "CUGAUUGUCAUAUGUCGUUUGUGGGAUCCG [hsa-mir-340]", "pull-down binding Z-score": -0.605}
{"sequence": "CUGCAGAACAUUGCAG [hsa-mir-4310]", "pull-down binding Z-score": -0.487}
{"sequence": "CUGCAGAGACGAGGCCUGUAG [hsa-mir-5682]", "pull-down binding Z-score": 0.688}
{"sequence": "CUGCAGGAAAGGGAAGACCAAGGCUUGCUGUCUGUCCAGUCUGCCACCCUACCCUGU [hsa-mir-1231]", "pull-down binding Z-score": -0.0839}
{"sequence": "CUGCAGGGACUGUGACACUGAA [hsa-mir-6816]", "pull-down binding Z-score": -0.0339}
{"sequence": "CUGCAGUGAGCGAUCGGUGCUCUGGGG [hsa-mir-503]", "pull-down binding Z-score": 0.176}
{"sequence": "CUGCAGUGAGUAGGUCUGCCU [hsa-mir-4254]", "pull-down binding Z-score": 0.19}
{"sequence": "CUGCCAUUGAAAGUAAAGGCAA [hsa-mir-548ag-2]", "pull-down binding Z-score": 0.656}
{"sequence": "CUGCCCCUCGAAUCUGCUCCACGAUUUGGGCAG [hsa-mir-4436a]", "pull-down binding Z-score": 0.0656}
{"sequence": "CUGCGGCCCUGAUGUCUCUACUCCAG [hsa-mir-4691]", "pull-down binding Z-score": 0.388}
{"sequence": "CUGCUCUCCCUGGCAGCAAG [hsa-mir-7109]", "pull-down binding Z-score": -0.207}
{"sequence": "CUGCUGAAUCUUCAGAAAGG [hsa-mir-3142]", "pull-down binding Z-score": -0.432}
{"sequence": "CUGCUGCCGAUUCUGCACCAG [hsa-mir-4756]", "pull-down binding Z-score": -0.432}
{"sequence": "CUGCUGCUGCUGCUGCUGCUGCUGCUGCUGCUGCUGCUGCUGCUGCUG [r(CUG)16]", "pull-down binding Z-score": -0.0148}
{"sequence": "CUGCUUUUAAAGGUAAUGGCAA [hsa-mir-548ag-1]", "pull-down binding Z-score": 0.107}
{"sequence": "CUGGAGUCGCCUGAGUCAUCACUCAG [hsa-mir-3065]", "pull-down binding Z-score": -0.142}
{"sequence": "CUGGCAUUUACGAGUCAGAGUUCUUACAGAGCUGC [hsa-mir-6514]", "pull-down binding Z-score": 0.163}
{"sequence": "CUGGCCAUCAGUGUGGGCUAAC [hsa-mir-6732]", "pull-down binding Z-score": -0.0637}
{"sequence": "CUGGCUGGUCCAGCCCCUCAGAAG [hsa-mir-6796]", "pull-down binding Z-score": 1.16}
{"sequence": "CUGGCUUCUCUGGUUCUCCAGCUUACAG [hsa-mir-1269b]", "pull-down binding Z-score": -0.401}
{"sequence": "CUGGGAAGAGACCAUGAACAGGUUAGUCCAG [hsa-mir-4327]", "pull-down binding Z-score": 0.385}
{"sequence": "CUGGGAAGGGAGCUGUCCGGCUCCCCAG [hsa-mir-3155b]", "pull-down binding Z-score": -0.412}
{"sequence": "CUGGGAGGUGUGAUAUCGUGGUUCCUGG [hsa-mir-3689c]", "pull-down binding Z-score": 1.02}
{"sequence": "CUGGGAGGUGUGAUCCCGUGCUUCCUGG [hsa-mir-3689b]", "pull-down binding Z-score": -0.788}
{"sequence": "CUGGGAGGUGUGAUCCUGUGCUUCCUGG [hsa-mir-3689a]", "pull-down binding Z-score": 0.678}
{"sequence": "CUGGGGACUGUGUGGACUGGUAUCACCCAG [hsa-mir-2278]", "pull-down binding Z-score": -0.242}
{"sequence": "CUGGGGAGCCGGACAGCUCCCUUCCCAG [hsa-mir-3155a]", "pull-down binding Z-score": 0.918}
{"sequence": "CUGGGGGAAGGCUCCAGACCCCAGCCU [hsa-mir-4267]", "pull-down binding Z-score": 0.793}
{"sequence": "CUGGGGUUGGAAUGUGACCCCA [hsa-mir-4654]", "pull-down binding Z-score": 0.425}
{"sequence": "CUGGGUCCUCUGUGCAGGGUCUUACCCAG [hsa-mir-7850]", "pull-down binding Z-score": -0.3}
{"sequence": "CUGGGUGGGACACUCAG [hsa-mir-4692]", "pull-down binding Z-score": 1.24}
{"sequence": "CUGGGUUCGGCUGCUACCCCAAA [hsa-mir-6768]", "pull-down binding Z-score": 0.179}
{"sequence": "CUGGGUUCUUAGAGGCCUAAUCCUCUACAAACUCAGUUU [hsa-mir-4305]", "pull-down binding Z-score": -0.124}
{"sequence": "CUGGUAGUAUAAAACCCAG [hsa-mir-934]", "pull-down binding Z-score": -0.0745}
{"sequence": "CUGGUGUUCUCACGCAAAGUGGCCAGGGUGUGGGAGACUAGA [hsa-mir-7161]", "pull-down binding Z-score": 0.688}
{"sequence": "CUGUAUGUCCUAACAGUGCUUGUAG [hsa-mir-4794]", "pull-down binding Z-score": -0.28}
{"sequence": "CUGUCCCCUGCCACUGGGUGACC [hsa-mir-7114]", "pull-down binding Z-score": 0.262}
{"sequence": "CUGUCCUGGACUGGGGUCAGACUGUGCCCCGAGGAGAAGCAG [hsa-mir-922]", "pull-down binding Z-score": -0.2}
{"sequence": "CUGUCUGUUGUAUAAAAGAAAAGAUCG [hsa-mir-517a]", "pull-down binding Z-score": 0.157}
